Laboratory results as given in patent publication US20160289283A1.

How the values were obtained:
Assay in all cases: cell-based or functional assay
[1] = target: human Y1 receptor (human) (UniProt P25929)
[2] = target: human Y4 receptor (human) (UniProt P50391)
[3] = target: human Y2 receptor (human) (UniProt P49146)
Sequence of human Y2 receptor (human) (P49146 whole entry): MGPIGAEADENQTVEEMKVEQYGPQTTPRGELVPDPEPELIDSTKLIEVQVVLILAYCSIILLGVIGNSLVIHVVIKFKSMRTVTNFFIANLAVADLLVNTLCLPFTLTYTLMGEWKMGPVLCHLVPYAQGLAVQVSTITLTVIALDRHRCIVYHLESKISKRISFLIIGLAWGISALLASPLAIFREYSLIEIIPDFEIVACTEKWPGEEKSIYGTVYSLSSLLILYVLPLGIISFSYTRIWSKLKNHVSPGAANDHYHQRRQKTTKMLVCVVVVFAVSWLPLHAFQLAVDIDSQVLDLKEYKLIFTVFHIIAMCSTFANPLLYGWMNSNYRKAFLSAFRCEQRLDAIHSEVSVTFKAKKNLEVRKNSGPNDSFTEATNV

Sequence of human Y1 receptor (human) (P25929 whole entry): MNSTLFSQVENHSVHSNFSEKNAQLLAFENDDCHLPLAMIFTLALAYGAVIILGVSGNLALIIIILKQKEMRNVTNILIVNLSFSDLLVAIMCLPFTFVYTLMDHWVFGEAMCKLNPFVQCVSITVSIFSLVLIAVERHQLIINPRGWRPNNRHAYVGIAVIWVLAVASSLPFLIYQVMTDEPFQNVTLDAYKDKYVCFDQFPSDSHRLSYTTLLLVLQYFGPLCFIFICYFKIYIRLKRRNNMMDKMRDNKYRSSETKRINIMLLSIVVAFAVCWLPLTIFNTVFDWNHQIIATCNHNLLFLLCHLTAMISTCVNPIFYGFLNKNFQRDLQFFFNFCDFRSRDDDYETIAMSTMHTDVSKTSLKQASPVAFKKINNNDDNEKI
Sequence of human Y4 receptor (human) (P50391 whole entry): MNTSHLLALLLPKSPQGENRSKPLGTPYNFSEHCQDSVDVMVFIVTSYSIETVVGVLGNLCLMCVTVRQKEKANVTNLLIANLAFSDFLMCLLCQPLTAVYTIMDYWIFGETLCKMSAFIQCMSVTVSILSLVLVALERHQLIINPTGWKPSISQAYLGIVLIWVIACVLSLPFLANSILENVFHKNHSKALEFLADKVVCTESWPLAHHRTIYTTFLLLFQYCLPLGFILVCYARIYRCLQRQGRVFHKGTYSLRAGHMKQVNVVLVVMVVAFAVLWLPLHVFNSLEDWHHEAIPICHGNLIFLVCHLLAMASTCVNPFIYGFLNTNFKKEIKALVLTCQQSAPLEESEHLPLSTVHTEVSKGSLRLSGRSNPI

Row | EC50, Actone functional potency assay [1] [nM] | EC50, Actone functional potency assay [2] [nM] | EC50, Actone functional potency assay [3] [nM] | Substance
1 | > 1000 | – | – | 7-N{Epsilon}-[2-[2-[2-[[2-[2-[2-[[2-[2-[2-[[2-[2-[2-[4-[16-(1H-tetrazol-5- yl)-hexadecanoylsulfamoyl]butanoylamino]ethoxy]ethoxy]acetyl]amino]ethoxy]-ethoxy]acetyl]amino]ethoxy]ethoxy]acetyl]amino]ethoxy]ethoxy]acetyl]-[Lys7,Gln18,Trp30,NMeArg35]hPYY(3-36) (peptide)
2 | > 1000 | > 1000 | 1 | 7-N{Epsilon}-[2-[2-[2-[[2-[2-[2-[[(4S)-4-carboxy-4-(16-sulfohexadecanoylamino)-butanoyl]amino]ethoxy]ethoxy]acetyl]amino]ethoxy]ethoxy]acetyl]-[Arg4,Lys7,Gln18,Trp30]hPYY(3-36) (peptide)

Continued, substance first:

Row | Substance | EC50, Actone functional potency assay [1] [nM] | EC50, Actone functional potency assay [2] [nM] | EC50, Actone functional potency assay [3] [nM]
3 | 7-N{Epsilon}-[2-[2-[2-[[2-[2-[2-[[(4S)-4-carboxy-4-(16-sulfohexadecanoylamino)-butanoyl]amino]ethoxy]ethoxy]acetyl]amino]ethoxy]ethoxy]acetyl]-[Lys7,Gln18,Trp30,NMeArg35]hPYY(3-36) (peptide) | > 1000 | – | –
4 | 4-N{alpha}-(hexanoyl)-7-N{Epsilon}-2-[2-[2-[[2-[2-[2-[[(4S)-4-carboxy-4-(16-sulfohexadecanoylamino)butanoyl]amino]ethoxy]ethoxy]acetyl]amino]ethoxy]-ethoxy]acetyl]-[Arg4,Lys7,Gln18,Trp30,NMeArg35]hPYY(4-36) (peptide) | > 1000 | – | –
5 | 4-N{alpha}-(3-Methylbutanoyl)-7-N{Epsilon}-[2-[2-[2-[[2-[2-[2-[[(4S)-4-carboxy-4-[[(4S)-4-carboxy-4-(16-sulfohexadecanoylamino)butanoyl]amino]butanoyl]amino]-ethoxy]ethoxy]acetyl]amino]ethoxy]ethoxy]acetyl]-[Lys7,Gln18,Trp30,NMeArg35]hPYY(4-36) (peptide) | – | > 1000 | –
